Measurements taken from US6602854B1, “Branched multimeric Apo A-I agonist compounds” (priority 1997, dated 2003).
Where two headings read alike, the source gives them in different places.

Assays:
HDL = test system: HDL
Description: (§1) The association of peptide 4 (SEQ ID NO:4) with human lipoprotein fractions was determined by incubating ^14C-labeled peptide 4 (SEQ ID NO:4) with each lipoprotein class (HDL, LDL and VLDL) and a mixture of the different lipoprotein classes.
(§2) HDL, LDL and VLDL were isolated by KBr density gradient ultracentrifugation at d=1.21 g/ml and purified by FPLC on a Superose 6B column size exclusion column (chromatography was carried out with a flow rate of 0.7 ml/min. and a running buffer of 10 mM Tris (pH 8), 115 mM NaCl, 2 mM EDTA and 0.01% NaN3). ^14C-labeled peptide 4 was incubated with HDL, LDL and VLDL at a peptide:phospholipid ratio of 1:5 (mass ratio) for 2 h at 37° C. The required amount of lipoprotein (volumes based on amount needed to yield 1000 μg) was mixed with 0.2 ml of peptide stock solution (1 mg/ml) and the solution was brought up to 2.2 ml using 0.9% of NaCl according to TABLE XIII:
(§3) After incubating for 2 hr. at 37° C., an aliquot (0.1 ml) was removed for liquid scintillation counting to determine the total radioactivity, the density of the remaining incubation mixture was adjusted to 1.21 g/ml with KBr, and the samples centrifuged at 100,000 rpm (300,000 g) for 24 hours at 4° C. in a TLA 100.3 rotor using a Beckman tabletop ultracentrifuge. The resulting supernatant was fractionated by removing 0.3 ml aliquots from the top of each sample for a total of 5 fractions, and 0.05 ml of each fraction was used for liquid scintillation counting. The top two fractions contain the floating lipoproteins, the other fractions (3-5) correspond to proteins/peptides in solution.

[1] = test system: mixture of HDL, LDL and VLDL
Description: as §1, §2, §3

VLDL = test system: VLDL
Description: as §1, §2, §3

LDL = test system: LDL
Description: as §1, §2, §3

HepG2 hepatoma cells = experiment: Cholesterol efflux; format: cell-based; settings: peptide:DMPC complexes 1:2 (w:w), 1-25 μg/ml, 24 hours; compared with native human ApoA-I
Description: HepG2 hepatoma cells were plated into 6-well culture dishes and grown to confluence. Cells were labeled with ^3H-cholesterol by drying the cholesterol, then adding 1% bovine serum albumin (BSA) in phosphate buffered saline (PBS), sonicating the solution, and adding 0.2 ml labeling solution and 1.8 ml growth medium to the cells, so that each well contained 2 μCi of radioactivity. Cells were incubated for 24 h with the labeling medium.
Peptide (or protein):DMPC complexes were prepared at a 1:2 peptide (or protein):DMPC ratio (w:w). […] Peptide or protein concentration in the final solution was 1 mg/ml.
Labeling media was removed from the cells and the cells were washed with PBS prior to addition of complexes. 1.6 ml of growth medium was added to each well, followed by peptide (or protein): DMPC complex and sufficient PBS to bring the final volume to 2 ml per well. The final peptide or ApoA-I concentrations were 1, 2.5, 5, 7.5 and 25 μg/ml medium. After 24 hours of incubation at 37° C., the medium was removed, and the cells washed with 2 ml of 1% BSA/PBS, followed by 2 washes with 2 ml each of PBS. The amount of ^3H-cholesterol effluxed into the medium was determined by liquid scintillation counting.

[2] = Control (peptide without lipoprotein)

Sequence: PVLDLFRELLNELLEALKQKLK [peptide 4]
- Recovery (HDL; HDL/Peptide): 91%
- radioactivity Total (HDL; HDL/Peptide): 89970
- radioactivity Total before centrifugation (HDL; HDL/Peptide): 98494
- radioactivity in Fraction 1 (HDL; HDL/Peptide): 61510
- radioactivity in Fraction 2 (HDL; HDL/Peptide): 17620
- radioactivity in Fraction 3 (HDL; HDL/Peptide): 2260
- radioactivity in Fraction 4 (HDL; HDL/Peptide): 3130
- radioactivity in Fraction 5 (HDL; HDL/Peptide): 5450
- share of total radioactivity in fractions 1 and 2 (associated with lipoprotein) (HDL; incubation with isolated HDL): 88%
- Recovery [1, 2]: 89%
- radioactivity Total [1, 2]: 79170
- radioactivity Total before centrifugation [1, 2]: 88550
- radioactivity in Fraction 1 [1, 2]: 650
- radioactivity in Fraction 2 [1, 2]: 1000
- radioactivity in Fraction 3 [1, 2]: 6590
- radioactivity in Fraction 4 [1, 2]: 36550
- radioactivity in Fraction 5 [1, 2]: 34380
- FPLC analysis of the LP/peptide incubation mixture (in words) ([1]; LP/Peptide): nearly all of the ^14C-labeled peptide 4 was associated with the HDL fraction
- Recovery ([1]; LP/Peptide): 87%
- radioactivity Total ([1]; LP/Peptide): 83650
- radioactivity Total before centrifugation ([1]; LP/Peptide): 96646
- radioactivity in Fraction 2 ([1]; LP/Peptide): 12990
- radioactivity in Fraction 3 ([1]; LP/Peptide): 3810
- radioactivity in Fraction 4 ([1]; LP/Peptide): 1510
- radioactivity in Fraction 5 ([1]; LP/Peptide): 5090
- radioactivity in Fraction 1 ([1]; LP/Peptide (HDL, LDL and VLDL)): 60250
- labeled peptide associated with the lipoprotein fraction ([1]; LP/Peptide, all lipoprotein fractions): 88%
- Recovery (VLDL; VLDL/Peptide): 75%
- radioactivity Total (VLDL; VLDL/Peptide): 73280
- radioactivity Total before centrifugation (VLDL; VLDL/Peptide): 97306
- radioactivity in Fraction 1 (VLDL; VLDL/Peptide): 42920
- radioactivity in Fraction 2 (VLDL; VLDL/Peptide): 19280
- radioactivity in Fraction 3 (VLDL; VLDL/Peptide): 3930
- radioactivity in Fraction 4 (VLDL; VLDL/Peptide): 2600
- radioactivity in Fraction 5 (VLDL; VLDL/Peptide): 4550
- share of total radioactivity in fractions 1 and 2 (associated with lipoprotein) (VLDL; incubation with isolated VLDL): 85%
- Recovery (LDL; LDL/Peptide): 89%
- radioactivity Total (LDL; LDL/Peptide): 89330
- radioactivity Total before centrifugation (LDL; LDL/Peptide): 100452
- radioactivity in Fraction 1 (LDL; LDL/Peptide): 43740
- radioactivity in Fraction 2 (LDL; LDL/Peptide): 15140
- radioactivity in Fraction 3 (LDL; LDL/Peptide): 11880
- radioactivity in Fraction 4 (LDL; LDL/Peptide): 10860
- radioactivity in Fraction 5 (LDL; LDL/Peptide): 7710
- share of total radioactivity in fractions 1 and 2 (associated with lipoprotein) (LDL; incubation with isolated LDL): 66%
- cholesterol efflux (in words) (HepG2 hepatoma cells): more efficient at cholesterol efflux than ApoA-I
